± gives the uncertainty stated by the source.
Test: self-splicing fitness, log relative to wild type (ln ratio); higher = more splicing; Tetrahymena group I intron in knt gene, E. coli kanamycin selection, DiMSum; sequences stand for … in CUCUCU…GGAGGGAAAAGUUAUCAGGCAUGCACCUGGUAGCUAGUCUUUAAACCAAUAGAUUGCAUCGGUUUAAAAGGCAAGACCGUCAAAUUGCGGGAAAGGGGUCAACAGCCGUUCAGUACCAAGUCUCAGGGGAAACUUUGAGAUGGCCUUGCAAAGGGUAUGGUAAUAAGCUGACGGACAUGGUCCUAACCACGCAGCCAAGUCCUAAGUCAACAGAUCUUCUGUUGAUAUGGAUGCAGUUCACAGACUAAAUGUCGGUCGGGGAAGAUGUAUUCUUCUCAUAAGAUAUAGUCGGACCUCUCCUUAAUGGGAGCUAGCGGAUGAAGUGAUGCAACACUGGAGCCGCUGGGAACUAAUUUGUAUGCGAAAGUAUAUUGAUUAGUUUUGGAGUACUCGUGGUCG
Method in brief: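 Pooled colonies went to amplicon sequencing on an Illumina HiSeq 2500 after six replicate transformations. The plates were LB agar with 100 μg/mL carbenicillin, 50 μM IPTG and 0.2% rhamnose, with or without 25 μg/mL kanamycin, incubated overnight at 37°C or 30°C. The E. coli BL21(DE3) library had all eight P1ex-region intron nucleotides randomised, the intron placed in the knt kanamycin-resistance gene on pET-22b(+). DiMSum fitness is the error-weighted combination of replicate fold changes, kanamycin against none, normalised to wild type.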

Row | Sequence | self-splicing fitness (ln) (30 °C) | self-splicing fitness (ln) (37 °C)
1 | AGAUAGCAAUAUUACGCACG | -1.13 ± 0.14 | -0.355 ± 0.12
2 | AGAUAGCAAUAUUACGCCCU | -0.337 ± 0.19 | 0.138 ± 0.21
3 | AGAUAGCAAUAUUACGCCUC | -3.23 ± 0.26 | -2.26 ± 0.29
4 | AGAUAGCAAUAUUACGCGCU | -2.31 ± 0.12 | -1.44 ± 0.14
5 | AGAUAGCAAUAUUACGCUCA | -0.765 ± 0.087 | -0.082 ± 0.11
6 | AGAUAGCAAUAUUACGCUUA | -0.901 ± 0.15 | -1.08 ± 0.13
7 | AGAUAGCAAUAUUACGCUUU | -0.847 ± 0.11 | -1.2 ± 0.16
8 | AGAUAGCAAUAUUACGGCCG | -0.583 ± 0.13 | -0.128 ± 0.23
9 | AGAUAGCAAUAUUACGGGGG | -3.43 ± 0.28 | -2.15 ± 0.29
10 | AGAUAGCAAUAUUACGGGUC | -3.73 ± 0.25 | -2.36 ± 0.25
11 | AGAUAGCAAUAUUACGGUGC | -4.21 ± 0.31 | -0.624 ± 0.15
12 | AGAUAGCAAUAUUACGUCUG | -0.398 ± 0.062 | -0.143 ± 0.076
13 | AGAUAGCAAUAUUACGUGAC | -3.44 ± 0.23 | -2.71 ± 0.48
14 | AGAUAGCAAUAUUACGUUGG | -4.65 ± 0.46 | -2.57 ± 0.2
15 | AGCAAGCAAUAUUACGAAAU | -2.42 ± 0.098 | -1.51 ± 0.12
16 | AGCAAGCAAUAUUACGAACG | -0.526 ± 0.083 | -0.449 ± 0.1
17 | AGCAAGCAAUAUUACGAAUA | -2.74 ± 0.26 | -0.872 ± 0.16
18 | AGCAAGCAAUAUUACGACUC | -1.12 ± 0.072 | -0.865 ± 0.08
19 | AGCAAGCAAUAUUACGACUG | -0.672 ± 0.077 | -0.735 ± 0.1
20 | AGCAAGCAAUAUUACGAGAA |  | -2.27 ± 0.4
21 | AGCAAGCAAUAUUACGAGGG | -3.29 ± 0.1 | -2.58 ± 0.15
22 | AGCAAGCAAUAUUACGAGGU | -3.87 ± 0.42 | -1.96 ± 0.2
23 | AGCAAGCAAUAUUACGAGUU | -2.98 ± 0.16 | -1.55 ± 0.16
24 | AGCAAGCAAUAUUACGAUCG | 0.481 ± 0.09 | -0.163 ± 0.12
25 | AGCAAGCAAUAUUACGAUUU | -0.00633 ± 0.054 | 0.677 ± 0.08
26 | AGCAAGCAAUAUUACGGAUA | -3.3 ± 0.28 | -1.77 ± 0.19
27 | AGCAAGCAAUAUUACGGGAC | -3.76 ± 0.33 | -2.24 ± 0.29

Row | Sequence | self-splicing fitness (ln) (30 °C) | self-splicing fitness (ln) (37 °C)
28 | AGCAAGCAAUAUUACGGGAU | -2.79 ± 0.098 | -1.15 ± 0.081
29 | AGCAAGCAAUAUUACGGGGC | -3.92 ± 0.29 | -2.89 ± 0.3
30 | AGCAAGCAAUAUUACGGGUA | -1.32 ± 0.081 | -0.594 ± 0.09
31 | AGCAAGCAAUAUUACGGUCU | -0.739 ± 0.069 | 0.0318 ± 0.085
32 | AGCAAGCAAUAUUACGGUUA | -0.707 ± 0.08 | 0.127 ± 0.08
33 | AGCAAGCAAUAUUACGGUUG | -3.23 ± 0.17 | -1.32 ± 0.16
34 | AGCAAGCAAUAUUACGUAAC | -5.08 ± 0.25 | -2.09 ± 0.14
35 | AGCAAGCAAUAUUACGUAGU | -3.18 ± 0.18 | -2.14 ± 0.19
36 | AGCAAGCAAUAUUACGUCCA | -1.62 ± 0.12 | 0.0058 ± 0.17
37 | AGCAAGCAAUAUUACGUGCC |  | -1.63 ± 0.27
38 | AGCAAGCAAUAUUACGUGCG | -1.25 ± 0.069 | -1.05 ± 0.087
39 | AGCAAGCAAUAUUACGUGGA | -2.85 ± 0.15 | -1.85 ± 0.12
40 | AGCAAGCAAUAUUACGUUCC | -1.21 ± 0.12 | -0.544 ± 0.13
41 | AGCCAGCAAUAUUACGAAAG | -3.13 ± 0.22 | -3.22 ± 0.38
42 | AGCCAGCAAUAUUACGACAG | -3.67 ± 0.27 | -2.74 ± 0.27
43 | AGCCAGCAAUAUUACGAGAG | -4.55 ± 0.27 | -3.02 ± 0.21
44 | AGCCAGCAAUAUUACGAGCG | -1.36 ± 0.095 | -0.0302 ± 0.13
45 | AGCCAGCAAUAUUACGCACU | -0.425 ± 0.094 | -0.259 ± 0.12
46 | AGCCAGCAAUAUUACGCUCU | -1.94 ± 0.1 | -0.912 ± 0.13
47 | AGCCAGCAAUAUUACGCUGA | -2.75 ± 0.16 | -1.87 ± 0.15
48 | AGCCAGCAAUAUUACGGGGG | -3.73 ± 0.24 | -1.99 ± 0.21
49 | AGCCAGCAAUAUUACGGGGU | -4.08 ± 0.19 | -2.22 ± 0.15
50 | AGCCAGCAAUAUUACGGUCC | -1.12 ± 0.081 | -0.461 ± 0.12
51 | AGCCAGCAAUAUUACGUAAG | -2.38 ± 0.057 | -1.34 ± 0.078
52 | AGCCAGCAAUAUUACGUAGU | -2.72 ± 0.12 | -1.83 ± 0.14
53 | AGCCAGCAAUAUUACGUAUG | -2.08 ± 0.089 | -3.2 ± 0.19
54 | AGCCAGCAAUAUUACGUCGC | -3.44 ± 0.35 | -2.74 ± 0.21

Row | Sequence | self-splicing fitness (ln) (30 °C) | self-splicing fitness (ln) (37 °C)
55 | AGCCAGCAAUAUUACGUGGU | -3.52 ± 0.14 | -3.58 ± 0.2
56 | AGCCAGCAAUAUUACGUUUC | -3.43 ± 0.18 | 
57 | AGCGAGCAAUAUUACGAACU | -2.3 ± 0.42 | -1.17 ± 0.29
58 | AGCGAGCAAUAUUACGAAGU | -3.59 ± 0.29 | -1.57 ± 0.21
59 | AGCGAGCAAUAUUACGACAU | -1.32 ± 0.015 | -0.624 ± 0.034
60 | AGCGAGCAAUAUUACGAGCU | -3.17 ± 0.24 | -2.49 ± 0.22
61 | AGCGAGCAAUAUUACGAUUA | -2.78 ± 0.23 | -2.15 ± 0.23
62 | AGCGAGCAAUAUUACGCACA | -2.76 ± 0.29 | -1.06 ± 0.18
63 | AGCGAGCAAUAUUACGCAGG | -2.43 ± 0.24 | 
64 | AGCGAGCAAUAUUACGCAUA |  | -1.77 ± 0.24
65 | AGCGAGCAAUAUUACGCAUG | -3.33 ± 0.22 | -1.48 ± 0.18
66 | AGCGAGCAAUAUUACGCAUU | -2.63 ± 0.24 | -2.04 ± 0.2
67 | AGCGAGCAAUAUUACGCUUU |  | -2.89 ± 0.27
68 | AGCGAGCAAUAUUACGGAUU |  | -1.96 ± 0.35
69 | AGCGAGCAAUAUUACGGCUC | -3.06 ± 0.34 | -2.06 ± 0.45
70 | AGCGAGCAAUAUUACGGGCU |  | -1.59 ± 0.24
71 | AGCGAGCAAUAUUACGGUAC | -3.58 ± 0.36 | 
72 | AGCGAGCAAUAUUACGGUGA | -3.59 ± 0.21 | -2.77 ± 0.15
73 | AGCGAGCAAUAUUACGGUUU | -2.1 ± 0.18 | -0.574 ± 0.15
74 | AGCGAGCAAUAUUACGUGCU | -4.05 ± 0.29 | -1.41 ± 0.23
75 | AGCGAGCAAUAUUACGUUGG | -2.04 ± 0.12 | -3.5 ± 0.46
76 | AGCUAGCAAUAUUACGAAAA | -3.04 ± 0.38 | -1.66 ± 0.23
77 | AGCUAGCAAUAUUACGAAUU | -1.74 ± 0.11 | -1.14 ± 0.13
78 | AGCUAGCAAUAUUACGACCG | -1.53 ± 0.1 | -1.06 ± 0.13
79 | AGCUAGCAAUAUUACGAGAC | -2.16 ± 0.24 | -2.14 ± 0.31
